In patent US20240076386A1 (Pfizer, published 2024):

Assays:
[1] = molecular target: T1, recombinant histidine-tagged cynomolgus monkey E-selectin (Sino Biologicals; 190169-C08H) (cynomolgus monkey, UniProt A0A2K5U7H9 22-554); test: direct binding ELISA, further assay
T1 construct: also called recombinant cynomolgus monkey E-selectin
T1 sequence: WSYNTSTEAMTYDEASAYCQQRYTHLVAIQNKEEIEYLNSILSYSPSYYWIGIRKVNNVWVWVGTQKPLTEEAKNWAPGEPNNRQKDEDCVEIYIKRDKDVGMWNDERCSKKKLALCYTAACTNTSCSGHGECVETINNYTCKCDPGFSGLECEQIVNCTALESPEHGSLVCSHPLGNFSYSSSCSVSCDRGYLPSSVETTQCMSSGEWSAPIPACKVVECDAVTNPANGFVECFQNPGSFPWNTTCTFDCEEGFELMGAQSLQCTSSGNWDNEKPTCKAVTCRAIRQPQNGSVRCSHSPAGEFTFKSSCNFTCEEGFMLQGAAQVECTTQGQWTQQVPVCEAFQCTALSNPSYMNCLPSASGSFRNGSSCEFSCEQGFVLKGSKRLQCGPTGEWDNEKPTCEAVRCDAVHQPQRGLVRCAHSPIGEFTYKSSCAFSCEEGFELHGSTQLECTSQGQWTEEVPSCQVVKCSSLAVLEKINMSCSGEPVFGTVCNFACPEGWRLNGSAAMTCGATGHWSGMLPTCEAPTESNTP
Method: (§1) Recombinant histidine tagged human P-, E- or L-selectin (Sino Biologicals), mouse E-selectin (Sino Biologicals), rat E-selectin (Sino Biologicals) and Cynomolgus monkey E-selectin (Sino Biologicals) stock solutions were prepared to a final concentration of 1 μg/mL in phosphate buffered saline without calcium and magnesium. Controls included an L-selectin directed antibody (BioLegend; 304811) or P-selectin directed antibody or a negative control IgG. One hundred μL per well of the diluted recombinant selectin proteins were added into a Ni-NTA HisSorb 96 well plate (Qiagen; 35061). Plates were incubated on an orbital shaker at room temperature for 2 hours. Following the incubation, the plates were washed 3 times with 200 μL of wash buffer (50 mM TRIS [trisaminomethane]; 150 mM sodium chloride; 0.05% polysorbate 20, pH 7.4). […] Anti L-selectin and anti-rat-E-selectin antibodies were detected using 1 to 25000 dilution of Peroxidase-conjugated AffiniPure Goat Anti-Mouse IgG (H+L); (Jackson ImnnunoResearch Lab).
(§2) Plates were washed and 100 μL per well of 1-Step Ultra TMB substrate (Thermo Scientific) was added and incubated for 5 minutes at room temperature. Reactions were stopped with 100 μL of 2 M sulfuric acid and absorbance read at 450 nm (Spectramax M5e).

[2] = molecular target: T2, human E-selectin extracellular domain with 10 His purification tail (human, UniProt P16581 22-556); test: SPR, soluble recombinant protein
T2 construct: also called soluable human E-selectin extracellular domain; rhE-Selectin
T2 sequence: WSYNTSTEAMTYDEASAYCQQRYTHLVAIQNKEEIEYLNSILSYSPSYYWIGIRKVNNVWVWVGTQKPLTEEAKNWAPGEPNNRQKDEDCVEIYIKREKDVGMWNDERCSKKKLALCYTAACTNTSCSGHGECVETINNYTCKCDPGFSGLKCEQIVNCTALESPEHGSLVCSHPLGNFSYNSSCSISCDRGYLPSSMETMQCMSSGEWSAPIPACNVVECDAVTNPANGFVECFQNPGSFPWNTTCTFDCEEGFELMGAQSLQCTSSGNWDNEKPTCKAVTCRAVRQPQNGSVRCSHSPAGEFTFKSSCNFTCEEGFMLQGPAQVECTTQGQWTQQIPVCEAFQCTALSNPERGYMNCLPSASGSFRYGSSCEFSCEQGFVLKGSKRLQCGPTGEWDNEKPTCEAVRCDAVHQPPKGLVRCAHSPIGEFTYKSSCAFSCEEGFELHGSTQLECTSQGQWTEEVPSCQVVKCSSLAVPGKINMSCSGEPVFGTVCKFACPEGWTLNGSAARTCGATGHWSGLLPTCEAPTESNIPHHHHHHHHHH
Method: To characterize binding of antibodies to human, cynomolgus monkey, and mouse E-selectin, an antibody was diluted to 0.5 μg/mL in HBS-EP+ and captured by the anti-human IgG immobilized on flow cells 2, 3 and 4 for 30 seconds to 1 minute at a flow rate of 10 μL/minute to achieve a capture level of 70 to 300 RU. Flow cell 1 was used as a reference surface. […] HBS-EP+ buffer cycles collected for each captured antibody were used for double-referencing (Myszka D G. J. Mol. Recognition 1999; 12(5):279-84). At the end of each cycle, the entire anti-IgG surface was regenerated by a 30 second pulse of 3 M MgCl₂ and a 30 second pulse of ionic buffer (1.83 M MgCl₂, 0.92 M Urea, 1.83 M Guanidine HCl, pH 7.4) (Andersson K. Analy. Chem. 1999; 71(13): 2475-81). Kinetic assays were conducted at 25° C. at a collection rate of 10 Hertz (Hz) on a BIAcore™ T200 instrument (GE Healthcare). Rate constants and affinities were determined by fitting the data to a 1:1 binding model in BIAcore™ T200 Evaluation software version 3.0 (GE Healthcare).

[3] = molecular target: T3, recombinant histidine-tagged human E-selectin (Sino Biologicals; 13025-H08H) (human, UniProt P16581 22-556); test: direct binding ELISA, soluble recombinant protein
T3 construct: also called recombinant human E-selectin; soluble recombinant human E-selectin
T3 sequence (looked up): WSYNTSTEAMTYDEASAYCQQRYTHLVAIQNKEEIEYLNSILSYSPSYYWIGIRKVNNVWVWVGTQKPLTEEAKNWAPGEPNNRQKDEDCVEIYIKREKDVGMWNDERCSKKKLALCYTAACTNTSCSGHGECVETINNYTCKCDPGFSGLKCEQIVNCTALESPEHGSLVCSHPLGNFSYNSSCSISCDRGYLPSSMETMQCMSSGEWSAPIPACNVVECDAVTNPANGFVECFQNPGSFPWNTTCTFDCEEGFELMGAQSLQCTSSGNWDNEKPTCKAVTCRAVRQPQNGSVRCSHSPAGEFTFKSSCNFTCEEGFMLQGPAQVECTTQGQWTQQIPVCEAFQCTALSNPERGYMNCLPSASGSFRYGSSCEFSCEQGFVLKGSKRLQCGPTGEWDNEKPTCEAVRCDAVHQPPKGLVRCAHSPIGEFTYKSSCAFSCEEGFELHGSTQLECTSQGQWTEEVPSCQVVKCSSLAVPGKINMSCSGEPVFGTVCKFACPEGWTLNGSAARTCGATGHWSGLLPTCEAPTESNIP
Method: as §1, §2

[4] = molecular target: T1, recombinant histidine-tagged cynomolgus …; test: direct binding ELISA, soluble recombinant protein
Method: as §1, §2

EC50 [1]: 0.071 to 0.075 nM | Kd [2]: 68.4 nM | EC50 [3]: 0.085 to 0.12 nM | EC50 [4]: 0.071 to 0.093 nM
B1: optimized anti-E-selectin antibody 1444 (antibody, human IgG1, kappa, V domains shown)
VH: EVQLVESGGGLVQPGGSLRLSCAASGYAIRSAYMHWVRQAPGKGLEWVARIDPANGNTIYVDSVTGRFTISADNAKNSAYLQMNSLRAEDTAVYYCAMDLYSTSEYWGQGTLVTVSS
VL: DIQMTQSPSSLSASVGDRVTITCKTSQNIERYLNWYQQKPGKAPKLLIYAASSLQSGVPSRFSGSGSGTDFTLTISSLQPEDFATYFCLQDNAWPLTFGQGTKVEIKR
notes: effector-null human IgG1, kappa
